Measurements as given in US20050244400A1.

Key:
[1] = molecular target: GAA Δ 817-952 (human GAA lacking C-terminal residues 817-952) (human) (UniProt P10253); experiment: cell-based or functional assay
[2] = molecular target: GAAΔ791-952-GILTΔ1-7 (GAA truncated with the GILT tag fused at position 791) (human) (UniProt P10253); experiment: cell-based or functional assay

Substance: SS-GAA-791-952 (human IGF-II signal sequence fused to human GAA residues 791-952, the C-terminal domain) (from UniProt P10253 791-952) (enzyme)
- GAA activity (nmol/hr-ml) in media of co-transfected HEK293 cells [1]: 14 nmol/h/mL
- GAA activity (nmol/hr-ml) in media of co-transfected HEK293 cells [2]: 2 nmol/h/mL

Substance: SS-GAA-817-952 (from UniProt P10253 817-952) (enzyme)
- GAA activity (nmol/hr-ml) in media of co-transfected HEK293 cells [2]: 1 nmol/h/mL
